Experimental data as given in PMC2148200.

How the values were obtained:
[1] = target: human recombinant BMP-2 (human) (UniProt P12643); assay: ELISA
[2] = target: TGF-β1; assay: ELISA

Sequence of human recombinant BMP-2 (human) (P12643 283-396): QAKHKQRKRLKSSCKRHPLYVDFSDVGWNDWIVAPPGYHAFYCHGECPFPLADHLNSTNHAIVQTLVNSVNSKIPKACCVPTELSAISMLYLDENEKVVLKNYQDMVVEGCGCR

Kd [1]: 5.23 nM | Kd [2]: 7.65 nM
Substance: recombinant human type IIA procollagen NH2-propeptide (rhIIA-GST, exon 2-GST fusion protein) (domain or fragment)
